Here are results for three molecules from patent US20240043566A1 (SUZHOU TRANSCENTA THERAPEUTICS, published 2024).

The target of this assay is T1, human PD-L1-Fc (Sino Biological, 70110-D02H) (human, UniProt Q9NZQ7 19-239).
T1 construct: also called hPD-L1-Fc; not shown: Fc part
As to the kind of experiment: BLI, PD-L1-Fc loaded, scFv in solution.

Numbering of substitutions follows the chain as printed.

T1 sequence (Q9NZQ7 19-239 limits assumed, stated change not applied): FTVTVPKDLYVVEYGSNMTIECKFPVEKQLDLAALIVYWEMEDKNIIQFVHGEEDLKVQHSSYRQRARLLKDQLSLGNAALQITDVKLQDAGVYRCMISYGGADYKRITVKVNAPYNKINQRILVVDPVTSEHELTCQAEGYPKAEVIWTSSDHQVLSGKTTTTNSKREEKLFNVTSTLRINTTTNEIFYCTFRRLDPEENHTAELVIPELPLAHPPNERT

B1: 4B6 scFv variant L-CDR1-1 (scFv)
scFv: DIQMTQSPSSLSASVGDRVTITCKASQNVGAIVAWYQQKPGKAPKLLIYSASNRYTGVPSRFSGSGSGTDFTLTISSLQPEDIATYYCQQYSNYPTFGQGTKLEIKGGGGSGGGGSGGGGSQVQLVQSGAEVKKPGASVKVSCKASGYVFTDYYMNWVRQAPGQSLEWMGDINPNNAGTSYNHKFKGRVTVTVDKSISTAYMELSRLRSDDTAVYYCVKWGDGPFAYWGQGTLVTVSS
notes: also called 4B6-L-CDR1-1
B1: the “Fold increase (over L-CDR1-WT)” value stood at 4.08 fold.

B2: 4B6 scFv variant L-CDR1-2 (scFv)
scFv: B1 scFv with G30P, I32A
notes: also called 4B6-L-CDR1-2
As to B2, the “Fold increase (over L-CDR1-WT)” value was 4.96 fold.

B3: 4B6 scFv variant L-CDR1-3 (scFv)
scFv: B1 scFv with G30K, A31G, I32A
notes: also called 4B6-L-CDR1-3
As for B3, the “Fold increase (over L-CDR1-WT)” value amounted to 10.1 fold.
